Test results taken from the supplement of paper PMC10567573.

B1: BRF1 (parent)
chain: FVESSGGGSSAVGQFVSLDGAGKT
B2: KLHL12 (parent)
chain: SMTTPRCYVGATVLRGRLYAIAGY
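Also: lentivirally expressed fusions sorted by FACS into six bins by GFP to DsRed ratio, PSI derived from sequencing read proportions per bin multiplied by bin number.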

Variants of: B1
Test: protein stability index of a GFP-peptide fusion (GPS, HEK-293T) (PSI 1-6); higher = more stable
Settings: c terminus: a fixed tail appended
Variant TVESSGGGSSAVGQFVSLDGAGKT [F1T] has a protein stability index of 5.09. EVESSGGGSSAVGQFVSLDGAGKT [F1E] gave a protein stability index of 5.04. Work on AVESSGGGSSAVGQFVSLDGAGKT [F1A] yielded a protein stability index of 4.71. Variant IVESSGGGSSAVGQFVSLDGAGKT [F1I] has a protein stability index of 4.34. GVESSGGGSSAVGQFVSLDGAGKT [F1G] gave a protein stability index of 5.26. For VVESSGGGSSAVGQFVSLDGAGKT [F1V], the protein stability index was 4.82. Work on HVESSGGGSSAVGQFVSLDGAGKT [F1H] yielded a protein stability index of 4.71. Variant KVESSGGGSSAVGQFVSLDGAGKT [F1K] has a protein stability index of 4.59. For CVESSGGGSSAVGQFVSLDGAGKT [F1C], the protein stability index was 4.65. Work on QVESSGGGSSAVGQFVSLDGAGKT [F1Q] yielded a protein stability index of 5.13. With SVESSGGGSSAVGQFVSLDGAGKT [F1S] the protein stability index was 5.15. RVESSGGGSSAVGQFVSLDGAGKT [F1R] gave a protein stability index of 5. LVESSGGGSSAVGQFVSLDGAGKT [F1L] gave a protein stability index of 4.89. With NVESSGGGSSAVGQFVSLDGAGKT [F1N] the protein stability index was 5.17. In the case of MVESSGGGSSAVGQFVSLDGAGKT [F1M], the protein stability index is reported as 4.99. PVESSGGGSSAVGQFVSLDGAGKT [F1P] gave a protein stability index of 5.24. Work on DVESSGGGSSAVGQFVSLDGAGKT [F1D] yielded a protein stability index of 5.32.

Variants of: B2
Test: as above
Settings: c terminus: a fixed tail appended
With SMTTPRCYVGATVLRGRLYAIAGM [Y24M] the protein stability index was 3.33. In the case of SMTTPRCYVGATVLRGRLYAIAGH [Y24H], the protein stability index is reported as 1.43. SMTTPRCYVGATVLRGRLYAIAGE [Y24E] showed a protein stability index of 2.33. In the case of SMTTPRCYVGATVLRGRLYAIAGI [Y24I], the protein stability index is reported as 2.45. In the case of SMTTPRCYVGATVLRGRLYAIAGP [Y24P], the protein stability index is reported as 2.64. Work on SMTTPRCYVGATVLRGRLYAIAGT [Y24T] yielded a protein stability index of 1.82. SMTTPRCYVGATVLRGRLYAIAGW [Y24W] gave a protein stability index of 2.45. In the case of SMTTPRCYVGATVLRGRLYAIAGQ [Y24Q], the protein stability index is reported as 2.45. Work on SMTTPRCYVGATVLRGRLYAIAGL [Y24L] yielded a protein stability index of 2.46. In the case of SMTTPRCYVGATVLRGRLYAIAGK [Y24K], the protein stability index is reported as 2.17. SMTTPRCYVGATVLRGRLYAIAGF [Y24F] showed a protein stability index of 3.7. In the case of SMTTPRCYVGATVLRGRLYAIAGA [Y24A], the protein stability index is reported as 1.48. For SMTTPRCYVGATVLRGRLYAIAGC [Y24C], the protein stability index was 1.82. With SMTTPRCYVGATVLRGRLYAIAGN [Y24N] the protein stability index was 1.75. For SMTTPRCYVGATVLRGRLYAIAGD [Y24D], the protein stability index was 2.03. Work on SMTTPRCYVGATVLRGRLYAIAGG [Y24G] yielded a protein stability index of 2.13. Work on SMTTPRCYVGATVLRGRLYAIAGS [Y24S] yielded a protein stability index of 1.27. For SMTTPRCYVGATVLRGRLYAIAGR [Y24R], the protein stability index was 1.95. In the case of SMTTPRCYVGATVLRGRLYAIAHY [G23H], the protein stability index is reported as 3.9. SMTTPRCYVGATVLRGRLYAIAIY [G23I] gave a protein stability index of 1.86. Work on SMTTPRCYVGATVLRGRLYAIANY [G23N] yielded a protein stability index of 1.78. Variant SMTTPRCYVGATVLRGRLYAIAMY [G23M] has a protein stability index of 2.83. Variant SMTTPRCYVGATVLRGRLYAIAKY [G23K] has a protein stability index of 1.35. For SMTTPRCYVGATVLRGRLYAIAEY [G23E], the protein stability index was 2.19. Work on SMTTPRCYVGATVLRGRLYAIAQY [G23Q] yielded a protein stability index of 3.57. Work on SMTTPRCYVGATVLRGRLYAIAPY [G23P] yielded a protein stability index of 2.39. For SMTTPRCYVGATVLRGRLYAIAAY [G23A], the protein stability index was 3.75. For SMTTPRCYVGATVLRGRLYAIARY [G23R], the protein stability index was 1.97. SMTTPRCYVGATVLRGRLYAIATY [G23T] gave a protein stability index of 2.54. Work on SMTTPRCYVGATVLRGRLYAIAFY [G23F] yielded a protein stability index of 2.6. With SMTTPRCYVGATVLRGRLYAIALY [G23L] the protein stability index was 3.25. Variant SMTTPRCYVGATVLRGRLYAIAWY [G23W] has a protein stability index of 2.54. For SMTTPRCYVGATVLRGRLYAIASY [G23S], the protein stability index was 2.08. Work on SMTTPRCYVGATVLRGRLYAIADY [G23D] yielded a protein stability index of 1.64. SMTTPRCYVGATVLRGRLYASAGY [I21S] gave a protein stability index of 1.2. For SMTTPRCYVGATVLRGRLYAPAGY [I21P], the protein stability index was 2.29. Variant SMTTPRCYVGATVLRGRLYAMAGY [I21M] has a protein stability index of 1.28. Work on SMTTPRCYVGATVLRGRLYAGAGY [I21G] yielded a protein stability index of 1.78. For SMTTPRCYVGATVLRGRLYAFAGY [I21F], the protein stability index was 2.81. With SMTTPRCYVGATVLRGRLYANAGY [I21N] the protein stability index was 1.81. Work on SMTTPRCYVGATVLRGRLYARAGY [I21R] yielded a protein stability index of 1.93. Variant SMTTPRCYVGATVLRGRLYAVAGY [I21V] has a protein stability index of 2.33. With SMTTPRCYVGATVLRGRLYAHAGY [I21H] the protein stability index was 1.59. SMTTPRCYVGATVLRGRLYAEAGY [I21E] gave a protein stability index of 1.78. Work on SMTTPRCYVGATVLRGRLYAWAGY [I21W] yielded a protein stability index of 2.43. In the case of SMTTPRCYVGATVLRGRLYAAAGY [I21A], the protein stability index is reported as 2.65. SMTTPRCYVGATVLRGRLYAQAGY [I21Q] gave a protein stability index of 1.67. SMTTPRCYVGATVLRGRLYALAGY [I21L] showed a protein stability index of 2.73. With SMTTPRCYVGATVLRGRLYATAGY [I21T] the protein stability index was 1.37. SMTTPRCYVGATVLRGRLYACAGY [I21C] showed a protein stability index of 1.37. In the case of SMTTPRCYVGATVLRGRLYAKAGY [I21K], the protein stability index is reported as 1.57. For SMTTPRCYVGATVLRGRLYADAGY [I21D], the protein stability index was 1.46. SMTTPRCYVGATVLRGRLYTIAGY [A20T] showed a protein stability index of 1.01. SMTTPRCYVGATVLRGRLYNIAGY [A20N] gave a protein stability index of 1.72. SMTTPRCYVGATVLRGRLYMIAGY [A20M] showed a protein stability index of 2.23. SMTTPRCYVGATVLRGRLYQIAGY [A20Q] gave a protein stability index of 2.45. Variant SMTTPRCYVGATVLRGRLYYIAGY [A20Y] has a protein stability index of 2.41. Variant SMTTPRCYVGATVLRGRLYVIAGY [A20V] has a protein stability index of 3.5. In the case of SMTTPRCYVGATVLRGRLYPIAGY [A20P], the protein stability index is reported as 2.26. Variant SMTTPRCYVGATVLRGRLYWIAGY [A20W] has a protein stability index of 3.09. In the case of SMTTPRCYVGATVLRGRLYRIAGY [A20R], the protein stability index is reported as 1.34. With SMTTPRCYVGATVLRGRLYAINGY [A22N] the protein stability index was 1.3. With SMTTPRCYVGATVLRGRLYAIIGY [A22I] the protein stability index was 3.06. In the case of SMTTPRCYVGATVLRGRLYAITGY [A22T], the protein stability index is reported as 1.69. Work on SMTTPRCYVGATVLRGRLYAIPGY [A22P] yielded a protein stability index of 2.08. Work on SMTTPRCYVGATVLRGRLYAIGGY [A22G] yielded a protein stability index of 1.24. Variant SMTTPRCYVGATVLRGRLYAIDGY [A22D] has a protein stability index of 2.12. With SMTTPRCYVGATVLRGRLYAISGY [A22S] the protein stability index was 1.26. With SMTTPRCYVGATVLRGRLYAIHGY [A22H] the protein stability index was 2.68. SMTTPRCYVGATVLRGRLYAIQGY [A22Q] showed a protein stability index of 1.52. For SMTTPRCYVGATVLRGRLYAIVGY [A22V], the protein stability index was 1.94. Variant SMTTPRCYVGATVLRGRLYAIRGY [A22R] has a protein stability index of 2.86. In the case of SMTTPRCYVGATVLRGRLYAIEGY [A22E], the protein stability index is reported as 2.3. SMTTPRCYVGATVLRGRLYAIMGY [A22M] showed a protein stability index of 2.01. Work on SMTTPRCYVGATVLRGRLYAIKGY [A22K] yielded a protein stability index of 1.52. SMTTPRCYVGATVLRGRLYAIFGY [A22F] gave a protein stability index of 2.3. SMTTPRCYVGATVLRGRLYAICGY [A22C] gave a protein stability index of 3.97.
